This passage reports activity (units total purified) and activity (units total purified (approx.)) results from patent publication US20050158769.

Data set [1] has as its system T1, MseI restriction endonuclease (R.MseI) (Micrococcus sp. NEB#446).
T1 sequence: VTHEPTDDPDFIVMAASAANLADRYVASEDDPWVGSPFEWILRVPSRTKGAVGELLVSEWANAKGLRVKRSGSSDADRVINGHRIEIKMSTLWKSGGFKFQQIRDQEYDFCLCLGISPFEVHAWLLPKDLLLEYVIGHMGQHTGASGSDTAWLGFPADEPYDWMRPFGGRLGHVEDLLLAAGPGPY
Nature of the data set: cleavage_in_vitro. As to conditions: NEBuffer 2 (50 mM NaCl, 10 mM MgCl2, 10 mM Tris-HCl, 1 mM DTT, pH 7.9) + BSA, 37 C; 1 unit digests 1 ug lambda DNA in 1 h.

The subject of data set [2] is T2, MseI restriction endonuclease (native) (Micrococcus sp. NEB#446).
T2 sequence: T1 sequence
Put plainly: cleavage_in_vitro. The conditions noted are these: native enzyme; substrate inferred from the unit assay.

As for lambda DNA, the activity (units total purified) in data set [1] is 2.6e+07. For the same substance, in data set [2], the activity (units total purified (approx.)) was 10000.
